Experiments:
[1] = biological target: T1, SaPriA (Staphylococcus aureus, UniProt Q2G266); assay: ATPase assay, thin-layer chromatography with autoradiography; type: biochemical; settings: 0.4 mM [γ-32P]ATP, 0.12 μM SaPriA, 0.1 μM PS4/PS3-dT30 DNA, 40 mM Tris pH 8.0, 10 mM NaCl, 2 mM DTT, 2.5 mM MgCl2, 1 h; labelled compound
T1 construct: gene priA; recombinant
T1 sequence (Q2G266 1-802): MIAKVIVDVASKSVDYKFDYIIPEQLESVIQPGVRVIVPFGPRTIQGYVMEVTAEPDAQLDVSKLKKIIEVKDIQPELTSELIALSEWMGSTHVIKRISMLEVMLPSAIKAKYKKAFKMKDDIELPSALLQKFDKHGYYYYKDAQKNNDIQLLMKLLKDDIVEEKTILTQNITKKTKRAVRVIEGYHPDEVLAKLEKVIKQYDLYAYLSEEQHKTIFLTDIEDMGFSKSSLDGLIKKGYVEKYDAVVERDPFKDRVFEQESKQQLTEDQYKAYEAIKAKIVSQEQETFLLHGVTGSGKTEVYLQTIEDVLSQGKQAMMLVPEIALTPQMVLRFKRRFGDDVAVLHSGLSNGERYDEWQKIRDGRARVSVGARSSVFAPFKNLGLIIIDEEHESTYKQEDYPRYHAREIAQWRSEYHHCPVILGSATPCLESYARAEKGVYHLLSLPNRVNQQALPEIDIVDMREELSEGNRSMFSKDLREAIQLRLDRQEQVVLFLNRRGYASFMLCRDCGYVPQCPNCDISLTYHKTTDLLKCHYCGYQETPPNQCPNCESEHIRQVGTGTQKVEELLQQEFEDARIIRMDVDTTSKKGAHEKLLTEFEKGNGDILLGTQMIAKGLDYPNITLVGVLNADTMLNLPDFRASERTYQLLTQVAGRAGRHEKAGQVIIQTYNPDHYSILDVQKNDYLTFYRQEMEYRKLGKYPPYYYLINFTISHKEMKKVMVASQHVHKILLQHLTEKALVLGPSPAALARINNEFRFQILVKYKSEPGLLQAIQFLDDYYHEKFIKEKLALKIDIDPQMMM

[2] = biological target: SaSsbC with a His tag (product of S. aureus ssb gene SAAV2152) (S. aureus subsp. aureus ED98); assay: cross-linking; glutaraldehyde (0.1% to 5%), SaSsbC 2.5 uM, 4 C, 30 min, Coomassie-stained SDS-PAGE; self-association, tetramer
[3] = biological target: SaSsbC with a His tag (product of S. aureus ssb gene SAAV2152) (S. aureus subsp. aureus ED98); assay: SEC; gel filtration, Superdex 200 prep grade, SaSsbC 2 mg/mL in Buffer B (20 mM HEPES, 100 mM NaCl, pH 7.0), column calibrated with proteins of known mass; self-association, tetramer

| Compound | ATPase assay, thin-layer chromatography with autoradiography [1] | stoichiometry N [2] | stoichiometry N [3] |
| --- | --- | --- | --- |
| Nc1ncnc2c1ncn2[C@@H]1O[C@H](COP(=O)(O)OP(=O)(O)OP(=O)(O)O)[C@@H](O)[C@H]1O [ATP] | SaPriA could hydrolyze ATP on its own | – | – |
| SaSsbC with a His tag (product of S. aureus ssb gene SAAV2152) (natural protein) | – | 4 | 4 |
